# From paper PMC4881898, “CD14 Is a Co-Receptor for TLR4 in the S100A9-Induced Pro-Inflammatory Response in Monocytes” (PLoS ONE, 2016)
# T1: recombinant human CD14 (human, UniProt P08571 20-345)
# T1 construct: CD14, human, recombinant soluble protein from CHO cells; Check this against the vendor data sheet; source: bought: R&D Systems (cat no 383-CD-050/CF), derived from CHO cells
# T1 sequence (looked up): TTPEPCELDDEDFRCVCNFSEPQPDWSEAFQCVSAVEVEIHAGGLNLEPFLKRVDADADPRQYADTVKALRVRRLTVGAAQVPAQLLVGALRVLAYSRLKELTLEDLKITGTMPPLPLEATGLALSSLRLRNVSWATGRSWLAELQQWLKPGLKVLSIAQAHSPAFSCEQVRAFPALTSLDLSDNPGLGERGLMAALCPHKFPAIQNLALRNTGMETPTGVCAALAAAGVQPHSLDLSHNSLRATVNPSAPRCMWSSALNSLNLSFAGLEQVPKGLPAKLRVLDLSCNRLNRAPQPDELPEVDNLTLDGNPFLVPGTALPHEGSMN
# B1: recombinant human S100A9 (natural protein, UniProt P06702 1-114, looked up)
# chain: MTCKMSQLERNIETIINTFHQYSVKLGHPDTLNQGEFKELVRKDLQNFLKKENKNEKVIEHIMEDLDTNADKQLSFEEFIMLMARLTWASHEKMHEGDEGPGHHHKPGLGEGTP
# notes: S100A9, human, recombinant; The discussion says the recombinant huS100A9 was produced in E. coli; Amine-coupled to the CM5 chip in the SPR experiment; also called huS100A9; source: recombinant, produced at Active Biotech AB, Lund, Sweden
# Molecular target: T1, recombinant human CD14
# Experiment: SPR; Biacore 3000; S100A8 and S100A9 immobilised in separate flow cells on a CM5 chip by amine coupling, to the same level; CD14 injected at 50 to 800 nM for 2 min at 30 ul/min in HBS-P (10 mM HEPES, 0.15 M NaCl, pH 7.4, 0.005% P20) with 1 mM Ca2+ and 20 uM Zn2+; regeneration with 3 mM EDTA; sensorgrams fit to a 1:1 model
# Settings: both partners purified
binder,measurement,value
B1,Kd,100 to 200 nM
